Test results as given in US20250084155A1 (University of Texas, published 2025).

B1: h77A-21 (antibody, V domains shown)
VH: QIQLVQSGPEVKKPGESVKVSCKASGYTFTNYGMNWVRQAPGKGLEWMGWINTYTGEPTYADDFKGRVTITRDTSASTAYMELSSLRSEDTAVYFCARYDHAMDYWGQGTSVTVSS
VL: EIVLTQSPDSLAVSLGERATINCKSSQSLLNSGTRKNYLAWYQQKAGQSPKLLIYWTSTRESGVPDRFSGSGSGTDFTLTIDSLQAEDVAVYYCKQSYTLYTFGGGTKVEIK
B2: h77A-7 (antibody, V domains shown)
VH: QIQLVQSGAEVKKPGSSVKVSCKASGYTFTNYGMNWVRQAPGQGLEWMGWINTYTGEPTYADDFKGRFTFTADESTSTAYMELSSLRSEDTAVYFCARYDHAMDYWGQGTLVTVSS
VL: DIVMTQSPDSLSVSLGERATINCKSSQSLLNSGTRKNYLAWYQQKPGQPPRLLIYWTSTRESGVPDRFSGSGSGTDFTLTINTLQAEDVAVYYCKQSYTLYTFGQGTKLEIK
B3: h77A-4 (antibody, V domains shown)
VH: QIQLVQSGAEVKKPGASVKVSCKASGYTFTNYGMNWVRQAPGQGLEWMGWINTYTGEPTYADDFKGRFTFTTDTSTSTAYMELRSLRSDDTAVYFCARYDHAMDYWGQGTLVTVSS
VL: DIQMTQSPSSLSASVGDRVTITCKSSQSLLNSGTRKNYLAWYQQKPGKVPKLLIYWTSTRESGVPSRFSGSGSGTDFTLTISSLQPEDVATYYCKQSYTLYTFGGGTKLEIK
B4: h77A-9 (antibody, V domains shown)
VH: QIQLVQSGAEVKKPGSSVKVSCKASGYTFTNYGMNWVRQAPGQGLEWMGWINTYTGEPTYADDFKGRFTFTADESTSTAYMELSSLRSEDTAVYFCARYDHAMDYWGQGTLVTVSS
VL: DIQMTQSPSSLSASVGDRVTITCKSSQSLLNSGTRKNYLAWYQQKPGKVPKLLIYWTSTRESGVPSRFSGSGSGTDFTLTISSLQPEDVATYYCKQSYTLYTFGGGTKLEIK
B5: h77A-14 (antibody, V domains shown)
VH: QVQLQQSGPEVKKPGASVKISCKTSGYTFTNYGMNWVRQAPGQGLEWMGWINTYTGEPTYADDFKGRVTMTTDTSTSTAYLELTGLMSDDTAVYFCARYDHAMDYWGQGTTVTVSS
VL: DIQMTQSPSSLSASVGDRVTITCKSSQSLLNSGTRKNYLAWYQQKPGKVPKLLIYWTSTRESGVPSRFSGSGSGTDFTLTISSLQPEDVATYYCKQSYTLYTFGGGTKLEIK
B6: h77A-24 (antibody, V domains shown)
VH: QIQLVQSGPEVKKPGESVKVSCKASGYTFTNYGMNWVRQAPGKGLEWMGWINTYTGEPTYADDFKGRVTITRDTSASTAYMELSSLRSEDTAVYFCARYDHAMDYWGQGTSVTVSS
VL: DIQMTQSPSSLSASVGDRVTITCKSSQSLLNSGTRKNYLAWYQQKPGKVPKLLIYWTSTRESGVPSRFSGSGSGTDFTLTISSLQPEDVATYYCKQSYTLYTFGGGTKLEIK
B7: h77A-12 (antibody, V domains shown)
VH: QVQLQQSGPEVKKPGASVKISCKTSGYTFTNYGMNWVRQAPGQGLEWMGWINTYTGEPTYADDFKGRVTMTTDTSTSTAYLELTGLMSDDTAVYFCARYDHAMDYWGQGTTVTVSS
VL: DIVMTQSPDSLSVSLGERATINCKSSQSLLNSGTRKNYLAWYQQKPGQPPRLLIYWTSTRESGVPDRFSGSGSGTDFTLTINTLQAEDVAVYYCKQSYTLYTFGQGTKLEIK
B8: h77A-13 (antibody, V domains shown)
VH: QVQLQQSGPEVKKPGASVKISCKTSGYTFTNYGMNWVRQAPGQGLEWMGWINTYTGEPTYADDFKGRVTMTTDTSTSTAYLELTGLMSDDTAVYFCARYDHAMDYWGQGTTVTVSS
VL: DVVMTQSPDSLAVSLGERVTINCKSSQSLLNSGTRKNYLAWYQQKPGQSPKLLIYWTSTRESGVPDRFSGSGSGTDFTLTISSLQAEDVAVYYCKQSYTLYTFGQGTKLEIK
B9: h77A-15 (antibody, V domains shown)
VH: QVQLQQSGPEVKKPGASVKISCKTSGYTFTNYGMNWVRQAPGQGLEWMGWINTYTGEPTYADDFKGRVTMTTDTSTSTAYLELTGLMSDDTAVYFCARYDHAMDYWGQGTTVTVSS
VL: DIVMTQSPDSLAVSLGERATINCKSSQSLLNSGTRKNYLAWYQQKPGQSPKLLIYWTSTRESGVPDRFSGSGSGTDFTLTISSLQAEDVAVYYCKQSYTLYTFGGGTKLEIK
B10: h77A-16 (antibody, V domains shown)
VH: EVQLVESGGGLVKPGGSLRLSCKASGYTFTNYGMNWVRQAPGKGLKWVGWINTYTGEPTYADDFKGRFTFSRDDSKNTLYLQMNSLKTEDTAVYFCARYDHAMDYWGQGTSVTVSS
VL: EIVLTQSPDSLAVSLGERATINCKSSQSLLNSGTRKNYLAWYQQKAGQSPKLLIYWTSTRESGVPDRFSGSGSGTDFTLTIDSLQAEDVAVYYCKQSYTLYTFGGGTKVEIK
B11: h77A-22 (antibody, V domains shown)
VH: QIQLVQSGPEVKKPGESVKVSCKASGYTFTNYGMNWVRQAPGKGLEWMGWINTYTGEPTYADDFKGRVTITRDTSASTAYMELSSLRSEDTAVYFCARYDHAMDYWGQGTSVTVSS
VL: DIVMTQSPDSLSVSLGERATINCKSSQSLLNSGTRKNYLAWYQQKPGQPPRLLIYWTSTRESGVPDRFSGSGSGTDFTLTINTLQAEDVAVYYCKQSYTLYTFGQGTKLEIK
B12: h77A-23 (antibody, V domains shown)
VH: QIQLVQSGPEVKKPGESVKVSCKASGYTFTNYGMNWVRQAPGKGLEWMGWINTYTGEPTYADDFKGRVTITRDTSASTAYMELSSLRSEDTAVYFCARYDHAMDYWGQGTSVTVSS
VL: DVVMTQSPDSLAVSLGERVTINCKSSQSLLNSGTRKNYLAWYQQKPGQSPKLLIYWTSTRESGVPDRFSGSGSGTDFTLTISSLQAEDVAVYYCKQSYTLYTFGQGTKLEIK
B13: h77A-25 (antibody, V domains shown)
VH: QIQLVQSGPEVKKPGESVKVSCKASGYTFTNYGMNWVRQAPGKGLEWMGWINTYTGEPTYADDFKGRVTITRDTSASTAYMELSSLRSEDTAVYFCARYDHAMDYWGQGTSVTVSS
VL: DIVMTQSPDSLAVSLGERATINCKSSQSLLNSGTRKNYLAWYQQKPGQSPKLLIYWTSTRESGVPDRFSGSGSGTDFTLTISSLQAEDVAVYYCKQSYTLYTFGGGTKLEIK
B14: chimeric 77A with a human IgG1 Fc domain (antibody, V domains shown)
VH: QIQLVQSGPELKKPGETVKISCKASGYTFTNYGMNWVKQAPGKGLKWMGWINTYTGEPTYADDFKGRFAFSLETSATTAYLQINNLKNEDTATYFCARYDHAMDYWGQGTSVTVSS
VL: DIVMSQSPSSLAVSAGEKVTMSCKSSQSLLNSGTRKNYLAWYQQKPGQSPKLLIYWTSTRESGVPDRFTGSGSGTDFTLTINSVQAEDLAVYYCKQSYTLYTFGGGTKLEIK
notes: also called Chimera IgG1; IgG1 Chimera

Target: T1, HSP70 (human HSP70; the antigen of the binning, humanization and variant binding assays) (human, UniProt P0DMV8 1-641, limits assumed)
T1 construct: also called hu HSP70
Assay: BLI, antibody on sensor
Experimental: Humanized variants were characterized for binding using biolayer interferometry (BLI). Chimeric antibodies including the murine 77A antigen binding region and human Fe regions were also tested. Antibodies and reagents were diluted out onto microwell plates and loaded into the instrument. Diluted antibodies were first immobilized onto dip-and-read sensors, and then measurements for baselines were acquired. Subsequently, the sensors were dipped into wells containing the antigen in solution, or buffer alone. The change in number of molecules bound to the sensor was quantified by measurement of the shift in the interference pattern of light during each step of the protocol. Mathematical modeling was performed based on those values and the concentrations of reagents used in the assay and used to calculate kinetics values.

T1 sequence (P0DMV8 whole entry, change not shown): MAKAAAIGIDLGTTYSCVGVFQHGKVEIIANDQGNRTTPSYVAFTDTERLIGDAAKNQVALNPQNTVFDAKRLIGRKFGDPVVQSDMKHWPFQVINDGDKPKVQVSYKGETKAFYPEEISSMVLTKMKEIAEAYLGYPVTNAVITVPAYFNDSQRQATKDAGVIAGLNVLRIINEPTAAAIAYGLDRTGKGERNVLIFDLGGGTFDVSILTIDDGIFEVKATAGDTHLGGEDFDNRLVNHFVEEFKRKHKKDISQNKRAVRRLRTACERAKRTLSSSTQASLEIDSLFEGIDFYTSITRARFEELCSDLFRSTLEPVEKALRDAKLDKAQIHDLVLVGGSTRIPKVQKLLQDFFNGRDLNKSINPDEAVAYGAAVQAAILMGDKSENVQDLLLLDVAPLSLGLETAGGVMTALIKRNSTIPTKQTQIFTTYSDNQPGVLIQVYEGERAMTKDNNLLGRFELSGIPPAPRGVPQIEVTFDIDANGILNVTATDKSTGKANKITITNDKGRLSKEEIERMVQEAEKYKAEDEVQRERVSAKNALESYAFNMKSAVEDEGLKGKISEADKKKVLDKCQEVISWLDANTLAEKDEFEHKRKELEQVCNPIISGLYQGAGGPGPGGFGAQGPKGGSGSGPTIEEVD

In order of rising Kd:
1. B14  1.39 nM
2. B3  7.66 nM
3. B11  8.31 nM
4. B8  8.85 nM
5. B4  8.89 nM
6. B12  8.96 nM
7. B6  9.26 nM
8. B2  10 nM
9. B7  10 nM
10. B10  10.5 nM
11. B13  10.6 nM
12. B9  10.8 nM
13. B1  13.1 nM
14. B5  15 nM

In order of falling koff:
1. B5  0.000616 s⁻¹
2. B1  0.000545 s⁻¹
3. B9  0.000513 s⁻¹
4. B13  0.000503 s⁻¹
5. B2  0.000488 s⁻¹
6. B10  0.00046 s⁻¹
7. B12  0.000447 s⁻¹
8. B7  0.000446 s⁻¹
9. B8  0.000396 s⁻¹
10. B4  0.000348 s⁻¹
11. B11  0.000302 s⁻¹
12. B6  0.000294 s⁻¹
13. B3  0.000287 s⁻¹
14. B14  9.94e-05 s⁻¹

In order of rising kon:
1. B6  31800 M⁻¹ s⁻¹
2. B11  36400 M⁻¹ s⁻¹
3. B3  37400 M⁻¹ s⁻¹
4. B4  39200 M⁻¹ s⁻¹
5. B5  41100 M⁻¹ s⁻¹
6. B1  41700 M⁻¹ s⁻¹
7. B10  44000 M⁻¹ s⁻¹
8. B7  44500 M⁻¹ s⁻¹
9. B8  44700 M⁻¹ s⁻¹
10. B13  47300 M⁻¹ s⁻¹
11. B9  47600 M⁻¹ s⁻¹
12. B2  48700 M⁻¹ s⁻¹
13. B12  49900 M⁻¹ s⁻¹
14. B14  71600 M⁻¹ s⁻¹
